Source: US20250009852A1, “DEPLETING EGFR AND HER2 OVERCOMES RESISTANCE TO EGFR INHIBITORS IN COLORECTAL CANCER” (Health Research, Inc., priority 2021, published 2025)

Experiments:
HB-EGF = assay: Measurement of soluble HB-EGF in tumor tissues by ELISA; assay type: in vivo, mouse; settings: HCT116 and HT29 tumors; aderbasib 60 mg/kg
Procedure: Concentrations of AREG and HB-EGF in tumor tissues were measured using the Human Amphiregulin/AREG ELISA Kit PicoKine and HB-EGF ELISA Kit, following the manufacturer's instruction. Briefly, 100 μl of standard or tumor tissue homogenate (cleared by centrifugation) was added to a microtiter well pre-coated with anti-human AREG or anti-human HB-EGF and incubated for 2 h at RT. After washing the plate with washing buffer, 100 μl of biotinylated anti-human AREG or biotinylated anti-human HB-EGF were added to each well and incubated for 1.5 h at RT. The microtiter wells were washed 3 times with wash buffer and incubated with 100 μl/well of avidin-biotin-peroxidase complex for 40 min at RT. The microtiter wells were washed 5 times with wash buffer and incubated with 90 µl/well color developing reagent for 30 min at RT. After adding 100 μl of stop solution to each well, absorbance at 450 nm was recorded by a Synergy 2 Multi-Mode Microplate Reader.

[1] = Monitoring of mice for signs of adverse effects; assay type: in vivo; settings: mice bearing HCT116 or HT29 tumors; aderbasib alone or the combination regimen
Procedure: SCID mice (C.B.17 SCID) were bred by the Laboratory Animal Shared Resource at Roswell Park Comprehensive Cancer Center. Male mice at 7-8 weeks of age were used. All mouse experiments were approved by the Institutional Animal Care and Use Committee at Roswell Park Comprehensive Cancer Center under protocol 1022M. We established subcutaneous tumors by inoculating 1×10^6 HCT116 cells, 4×10^6 HT29 cells, or 2×10^6 SW48 cells to the flank of each mouse in 100 μl of serum free medium. Colon patient-derived xenograft (PDX) 14650 was established from a liver metastatic lesion in a patient treated at Roswell Park Comprehensive Cancer Center. Tumor fragments (˜20 mm^3) from donor mice were implanted into the flank of each mouse subcutaneously using a trocar. […] Subcutaneous tumor volume was measured using length ×width^2÷2. Tumor volume was measured three times each week. Orthotopic tumor growth was monitored by bioluminescence weekly. Mice were given D-luciferin (150 mg/kg) by ip and anesthetized with isoflurane, and tumor burden was measured by bioluminescence using the IVIS Spectrum In Vivo Imaging System (PerkinElmer). Drug treatment was started when significant tumor growth was detected. […] The mice were closely monitored for sign of adverse effects and weighed three times each week. […]

HCT116 cells = assay: MTT cell proliferation assay; assay type: cell-based, human; settings: 24, 48 or 72 h, PEPD^G278D 5-250 nM, cetuximab 2.75-275 nM, panitumumab 2.77-277 nM
Procedure: (§1) Cells were grown in 96-well plates. […] The cells were then washed with PBS and mixed with dimethyl sulfoxide (150 μl per well), and cell density was determined by measuring the reduction of MTT to formazan spectroscopically at 570 nm using a Synergy 2 Multi-Mode Microplate Reader (BioTek). In experiments involving siRNA transfection, 2×10^3 HCT116 cells or 6×10^3 HT29 cells were seeded to each well of 96-well plates overnight and then transfected 25 nM siRNA (scramble siRNA, EGFR siRNA or HER2 siRNA) as described above, followed by MTT assay.

HT29 cells = assay: MTT cell proliferation assay; assay type: cell-based, human; settings: 24, 48 or 72 h, PEPD^G278D 5-250 nM, cetuximab 2.75-275 nM, panitumumab 2.77-277 nM
Procedure: as §1

SW48 cells = assay: MTT cell proliferation assay; assay type: cell-based, human
Procedure: as §1

SW620 cells = assay: MTT cell proliferation assay; assay type: cell-based, human; settings: SW620 cells (no EGFR, no HER2); 24, 48 or 72 h
Procedure: as §1

[2] = system: HER3, MET, IGF1R, SRC, AKT, ERK, MEK; assay: Western blotting of whole cell lysates: other RTKs and downstream signaling proteins; assay type: cell-based, human; settings: 25 nM, 48 h
Procedure: (§2) To prepare whole cell lysates, cells were washed with PBS twice, mixed with 1× cell lysis buffer from Cell Signaling Technology supplemented with 2 mM PMSF and a protease inhibitor cocktail from Roche Applied Science, placed on ice for 10 min, sonicated at 0-4° C. to enhance cell lysis using a Branson Model 450 sonifier, and finally centrifuged at 13,000 g for 10 min at 4° C., and the supernatant fraction is collected as whole cell lysate. Tumor and samples were mixed with RIPA buffer (25 mM Tris-HCl, PH7.6, 150 mM NaCl, 1% Nonidet P-40, 1% sodium deoxycholate, and 0.1% SDS), which was supplemented with 2 mM PMSF, the protease inhibitor cocktail mentioned above, phosphatase inhibitor cocktail 2 and phosphatase inhibitor cocktail 3 from Sigma-Aldrich at 14.3 μl buffer per mg tissue, and homogenized in a Dounce homogenizer. The homogenates were cleared by centrifugation at 13,000 g for 15 min at 4° C.
Protein concentrations in all samples were measured using the BCA Assay Kit. For Western blotting, each sample was mixed with 4× loading dye, heated for 5 min at 95° C., and resolved by SDS-PAGE (8-12.5%). Proteins were transferred to polyvinylidene fluoride membrane, probed with specific antibodies, and detected using either Luminata Classico (Millipore) or Luminata Cresendo (Millipore). For IP, cell lysates (0.5 mg protein/sample) were incubated with a desired antibody overnight at 4° C., followed by incubation of 500 μl sample with 30 μl G-Sepharose beads (2 mg/ml) for 1 h at RT. The beads were washed three times with IP buffer, suspended in 2× SDS loading buffer, boiled for 5 min, and analyzed by Western blotting.

HRAS, NRAS, KRAS = assay: Western blotting of whole cell lysates: RAS proteins; assay type: cell-based, human; settings: 48 h
Procedure: as §2
Protein concentrations in all samples were measured using the BCA Assay Kit. […] Proteins were transferred to polyvinylidene fluoride membrane, probed with specific antibodies, and detected using either Luminata Classico (Millipore) or Luminata Cresendo (Millipore). […] The beads were washed three times with IP buffer, suspended in 2× SDS loading buffer, boiled for 5 min, and analyzed by Western blotting.

Molecule: COC(=O)N1CC2(CC2)C[C@H](C(=O)NO)[C@H]1C(=O)N1CC=C(c2ccccc2)CC1 [aderbasib]
- soluble HB-EGF level in the tumor tissues (HB-EGF): marked decrease
- signs of toxicity [1]: did not show signs of toxicity

B1: PEPD^G278D: recombinant and enzymatically inactive mutant of human peptidase D (PEPD), with replacement of glycine 278 by aspartic acid (protein)
chain: AAATGPSFWLGNETLKVPLALFALNRQRLCERLRKNPAVQAGSIVVLQGGEETQRYCTDTGVLFLQESFFHWAFGVTEPGCYGVIDVDTGKSTLFVPRLPASHATWMGKIHSKEHFKEKYAVDDVQYVDEIASVLTSQKPSVLLTLRGVNTDSGSVCREASFDGISKFEVNNTILHPEIVESRVFKTDMELEVLRYTNKISSEAHREVMKAVKVGMKEYGLESLFEHYCYSRGGMRHSSYTCICGSGENSAVLHYGHAGAPNDRTIQNGDMCLFDMDGEYYSVASDITCSFPRNGKFTADQKAVYEAVLLSSRAVMGAMKPGDWWPDIDRLADRIHLEELAHMGILSGSVDAMVQAHLGAVFMPHGLGHFLGIDVHDVGGYPEGVERIDEPGLRSLRTARHLQPGMVLTVEPGIYFIDHLLDEALADPARASFLNREVLQRFRGFGGVRIEEDVVVIDSGIELLTCVPRTVEEIEACMAGCDKAFTPFSGPK
modifications: left off: small tags and cut ends
- cell growth measured by MTT assay (HCT116 cells): strongly inhibited the growth
- cell growth measured by MTT assay (HT29 cells): strongly inhibited the growth
- growth-inhibitory potency compared with the EGFR MABs (SW48 cells): more potent
- cell growth measured by MTT assay (SW48 cells; 24, 48 or 72 h, PEPD^G278D 5-250 nM, cetuximab 2.75-275 nM, panitumumab 2.77-277 nM): strongly inhibited the growth
- cell growth measured by MTT assay (SW620 cells): ineffective
- expression of other signaling proteins (HER3, MET, IGF1R, SRC, AKT, ERK) ([2]; HCT116, HT29 and SW48 cells): had no effect on the expression
- phosphorylation of other signaling proteins (HER3, MET, IGF1R, SRC, AKT, ERK) ([2]; HCT116, HT29 and SW48 cells): markedly decreased their phosphorylation
- MEK phosphorylation ([2]; HCT116 and HT29 cells): markedly decreased MEK phosphorylation
- phosphorylation or expression of HER3, MET, IGF1R, SRC, AKT, and ERK ([2]; SW620 cells that lack EGFR and HER2): had no effect
- expression of HRAS and NRAS (HRAS, NRAS, KRAS; HCT116, HT29 and SW48 cells, 25 nM): strongly downregulates
- expression of WT or mutated KRAS (HRAS, NRAS, KRAS; PEPD^G278D 25 nM, cetuximab 275 nM): neither PEPD^G278D nor cetuximab regulated the expression
